The results in this text go back to patent US5990092.

The target of this series is GATA-6 (Homo sapiens) (UniProt Q92908). In words: cell_activity. The conditions noted are these: luciferase transactivation in p53-/- MEFs.
Sequence of GATA-6 (Homo sapiens) (Q92908 147-595): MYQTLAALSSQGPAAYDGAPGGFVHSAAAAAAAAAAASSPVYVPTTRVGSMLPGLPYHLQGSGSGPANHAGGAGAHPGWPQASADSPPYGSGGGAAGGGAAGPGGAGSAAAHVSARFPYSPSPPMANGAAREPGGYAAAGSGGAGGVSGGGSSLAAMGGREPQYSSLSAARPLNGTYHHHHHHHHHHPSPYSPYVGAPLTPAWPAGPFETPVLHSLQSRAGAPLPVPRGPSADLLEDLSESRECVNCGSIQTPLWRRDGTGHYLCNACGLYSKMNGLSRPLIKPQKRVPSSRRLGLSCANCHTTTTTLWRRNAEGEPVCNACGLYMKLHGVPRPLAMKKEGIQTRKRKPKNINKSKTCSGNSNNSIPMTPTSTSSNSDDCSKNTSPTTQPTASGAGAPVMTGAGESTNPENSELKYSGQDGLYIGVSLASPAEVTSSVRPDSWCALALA

Substance p21 promoter 3.8 kbp returned an activity of 3.7 fold.
